Consider 3 molecules from article PMC7192597, “Mechanistic insights from structure of Mycobacterium smegmatis topoisomerase I with ssDNA bound to both N- and C-terminal domains”.

The target in series [1] is T1, MsmTOP1 full length (topoisomerase I) (Mycobacterium smegmatis mc2 155, UniProt A0R5D9 1-936).
T1 sequence: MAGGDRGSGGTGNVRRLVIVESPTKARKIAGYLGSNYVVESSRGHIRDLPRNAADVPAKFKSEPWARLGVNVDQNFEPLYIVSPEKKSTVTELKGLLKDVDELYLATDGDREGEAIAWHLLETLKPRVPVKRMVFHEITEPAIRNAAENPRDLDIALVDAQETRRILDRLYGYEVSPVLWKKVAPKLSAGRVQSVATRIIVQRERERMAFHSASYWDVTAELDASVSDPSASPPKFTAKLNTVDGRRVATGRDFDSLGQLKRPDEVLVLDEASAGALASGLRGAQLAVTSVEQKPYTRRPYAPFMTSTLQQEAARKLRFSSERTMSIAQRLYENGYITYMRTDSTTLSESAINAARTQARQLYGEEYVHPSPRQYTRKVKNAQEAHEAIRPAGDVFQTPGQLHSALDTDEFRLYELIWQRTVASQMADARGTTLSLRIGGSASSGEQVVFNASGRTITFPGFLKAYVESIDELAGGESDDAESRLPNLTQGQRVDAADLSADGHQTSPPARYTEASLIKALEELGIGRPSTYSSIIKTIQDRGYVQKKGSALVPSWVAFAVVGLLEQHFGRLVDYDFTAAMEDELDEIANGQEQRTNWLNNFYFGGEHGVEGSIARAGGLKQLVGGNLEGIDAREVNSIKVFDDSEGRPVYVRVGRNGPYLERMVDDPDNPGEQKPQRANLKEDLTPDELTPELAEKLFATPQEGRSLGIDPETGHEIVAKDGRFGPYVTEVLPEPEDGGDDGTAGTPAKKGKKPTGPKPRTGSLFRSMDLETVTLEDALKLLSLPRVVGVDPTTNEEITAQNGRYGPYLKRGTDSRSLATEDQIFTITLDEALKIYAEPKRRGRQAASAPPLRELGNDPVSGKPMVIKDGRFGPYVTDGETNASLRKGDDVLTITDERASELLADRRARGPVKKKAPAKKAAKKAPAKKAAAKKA
Kind of series: fluorescence anisotropy; Kd could not be determined; no Mg2+, 0.1 mM EDTA; Anisotropy: 50 mM Tris-HCl pH 7.5, 100 mM NaCl, 0.1 mM EDTA, room temperature; crystal: 0.1 M Tris-HCl pH 8.5, 1.5 M lithium sulfate, 16 C, protein:ssDNA 1:2. To be noted: protein: recombinant; tags: His6-Mocr removed by TEV (N-terminal SNA left); label: 3' 6-carboxyfluorescein; single strand. On the technique in general: Polarisation of emitted light reports the rotation of a fluorescent probe.

The next series deals with T2, MsmTOP1-701t (D1-D5) (Mycobacterium smegmatis mc2 155, UniProt A0R5D9 1-701).
T2 sequence: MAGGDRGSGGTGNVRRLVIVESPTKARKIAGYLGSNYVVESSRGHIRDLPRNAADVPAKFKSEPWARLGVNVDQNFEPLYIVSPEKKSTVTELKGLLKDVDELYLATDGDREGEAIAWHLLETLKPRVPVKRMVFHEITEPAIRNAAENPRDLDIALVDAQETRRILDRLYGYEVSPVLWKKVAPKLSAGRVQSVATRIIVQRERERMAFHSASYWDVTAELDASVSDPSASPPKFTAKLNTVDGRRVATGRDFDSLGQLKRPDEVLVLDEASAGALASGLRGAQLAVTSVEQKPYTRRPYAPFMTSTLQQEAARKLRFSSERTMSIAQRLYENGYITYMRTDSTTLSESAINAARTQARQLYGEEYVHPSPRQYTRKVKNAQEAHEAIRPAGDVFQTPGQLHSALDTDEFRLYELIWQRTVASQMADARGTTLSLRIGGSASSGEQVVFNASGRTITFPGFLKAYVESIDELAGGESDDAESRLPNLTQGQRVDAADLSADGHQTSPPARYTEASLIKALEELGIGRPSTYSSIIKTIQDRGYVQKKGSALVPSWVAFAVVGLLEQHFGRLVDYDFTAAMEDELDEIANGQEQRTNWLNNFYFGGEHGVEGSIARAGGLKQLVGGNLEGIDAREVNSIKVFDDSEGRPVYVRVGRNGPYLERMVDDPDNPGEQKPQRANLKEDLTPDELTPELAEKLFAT
The experiment in a line: fluorescence anisotropy; no Mg2+, 0.1 mM EDTA; Anisotropy: 50 mM Tris-HCl pH 7.5, 100 mM NaCl, 0.1 mM EDTA, room temperature; crystal: 0.1 M Tris-HCl pH 8.5, 1.5 M lithium sulfate, 16 C, protein:ssDNA 1:2. To be noted: protein: recombinant; tags: His6-Mocr removed by TEV (N-terminal SNA left); label: 3' 6-carboxyfluorescein; single strand.

Series [2] deals with T1, MsmTOP1 full length (topoisomerase I). Described as above. To be noted: protein: recombinant; tags: His6-Mocr removed by TEV (N-terminal SNA left); label: 3' 6-carboxyfluorescein; single strand.
The next series concerns the target T3, MsmTOP1-839t (D1-D7) (Mycobacterium smegmatis mc2 155, UniProt A0R5D9 1-839).
T3 sequence: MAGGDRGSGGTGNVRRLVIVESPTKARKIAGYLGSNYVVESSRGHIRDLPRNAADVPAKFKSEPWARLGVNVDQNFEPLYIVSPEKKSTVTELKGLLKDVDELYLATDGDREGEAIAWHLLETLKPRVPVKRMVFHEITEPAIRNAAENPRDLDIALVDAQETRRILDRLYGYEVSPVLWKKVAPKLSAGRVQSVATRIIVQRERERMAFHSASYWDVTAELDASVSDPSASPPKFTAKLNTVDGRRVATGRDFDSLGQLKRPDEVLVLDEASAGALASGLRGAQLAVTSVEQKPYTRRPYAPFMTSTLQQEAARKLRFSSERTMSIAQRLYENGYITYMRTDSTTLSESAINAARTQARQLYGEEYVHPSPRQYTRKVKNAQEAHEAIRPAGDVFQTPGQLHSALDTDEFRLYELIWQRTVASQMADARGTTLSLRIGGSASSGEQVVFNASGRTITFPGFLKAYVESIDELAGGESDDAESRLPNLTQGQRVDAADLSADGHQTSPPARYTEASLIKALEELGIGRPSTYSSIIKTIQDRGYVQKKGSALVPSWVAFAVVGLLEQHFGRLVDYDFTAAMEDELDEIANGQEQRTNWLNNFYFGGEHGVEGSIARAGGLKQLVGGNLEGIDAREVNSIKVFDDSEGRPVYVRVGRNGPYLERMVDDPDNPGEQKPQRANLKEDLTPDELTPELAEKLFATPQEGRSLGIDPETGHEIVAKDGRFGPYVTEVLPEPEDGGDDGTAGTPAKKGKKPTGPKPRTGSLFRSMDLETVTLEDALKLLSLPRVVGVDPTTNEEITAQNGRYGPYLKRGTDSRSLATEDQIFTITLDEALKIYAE
Kind of series: X-ray crystallography (3.1 A); no metal ion at active site; ssDNA at both N-terminal and D6-D7 domains; Anisotropy: 50 mM Tris-HCl pH 7.5, 100 mM NaCl, 0.1 mM EDTA, room temperature; crystal: 0.1 M Tris-HCl pH 8.5, 1.5 M lithium sulfate, 16 C, protein:ssDNA 1:2. To be noted: protein: recombinant; tags: His6-Mocr removed by TEV (N-terminal SNA left); single strand; in crystal two copies pair through 5' regions (12 bp, six non-Watson-Crick pairs/mismatches).

As for CTTCCGCTTGACAT (ssDNA) [MTS3-14], the binding result in series [1] is reported as “binds”.

A word on the Kd: it is a measure of binding affinity in units of concentration. On to CAGTGAGCGAGCTTCCGCTTGACATCCCAATA (ssDNA) [STS32], for which the results for the Kd (with MsmTOP1-701t (D1-D5); in series [2]) were 14.9 nM and 0.3 nM, respectively.

As for CAGTGAGCGAGCTTCCGCTTGACTT (ssDNA) [MTS2-25], the binding result with MsmTOP1-839t (D1-D7) is “binds”.
